Target: SARS-CoV-2 Spike S1 subunit (Sino Biological) (SARS-CoV-2, UniProt P0DTC2 16-685)

Binder	koff	kon
AB-009270 (antibody, V domains shown) VH: QMQLVQSGPEVKKPGTSVKVSCKASGFTFTSSAMQWVRQARGQRLEWIGWIVVGSGNTNYAQKFQERVTITRDMSTSTAYMELSSLRSEDTAVYYCAVNYCSSTSCYDAFDIWGQGTMVTVSS VL: not shown	0.000208 s⁻¹	69000 M⁻¹ s⁻¹
AB-009760 (antibody, V domains shown) VH: EVQLVQSGAEVKKPGESLKISCKGSGYSFTSYWIGWVRQMPGKGLEWMGIIYPGDSDTRYSPSFQGQVTISADKSISTAYLQWSSLKASDTAMYYCARSRSSDYFDYWGQGTLVTVSS VL: not shown		64100 M⁻¹ s⁻¹
